The target in one assay is T1, dogfish αB-crystallin (spiny dogfish (endogenous in lens), UniProt P02512 1-177).
T1 construct: αB-crystallin polypeptide of spiny dogfish lens α-crystallin; native subunit, not separated from αA-crystallin; tryptophan at positions 9, 49 and 63; Native polypeptide from lens; It accounts for >80% of dogfish α-crystallin; also called αB polypeptide; αB subunit
T1 sequence (looked up): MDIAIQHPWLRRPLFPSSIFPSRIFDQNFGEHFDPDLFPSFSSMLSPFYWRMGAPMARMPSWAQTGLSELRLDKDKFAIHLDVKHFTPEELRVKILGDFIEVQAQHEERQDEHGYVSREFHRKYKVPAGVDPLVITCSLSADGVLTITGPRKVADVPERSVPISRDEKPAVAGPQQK
The assay is described as follows: SEC; gel filtration of lens extract on Sephacryl S300 in phosphate buffered saline with sodium azide, pH 7.2, room temperature; central 50% of the α-crystallin peak rechromatographed; size by comparison with known proteins; subunits of the isolated native hetero-oligomer by SDS-PAGE (only α-crystallin polypeptides present). Particulars: both partners purified.

The target of another assay is T2, bovine αB-crystallin (bovine (endogenous in lens), UniProt P02510 1-175).
T2 construct: αB-crystallin polypeptide of bovine lens α-crystallin; native subunit, not separated from αA-crystallin; Native polypeptide from lens; also called bovine αB-crystallin polypeptide
T2 sequence (looked up): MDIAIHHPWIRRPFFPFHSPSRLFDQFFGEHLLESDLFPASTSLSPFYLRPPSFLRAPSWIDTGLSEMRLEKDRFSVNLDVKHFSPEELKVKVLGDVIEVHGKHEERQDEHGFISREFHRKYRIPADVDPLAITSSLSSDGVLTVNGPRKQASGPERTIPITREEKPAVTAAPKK
Described as above. As to conditions: both partners purified.

B1: dogfish αA-crystallin (natural protein, spiny dogfish (endogenous in lens), UniProt P02509 1-177, looked up)
chain: MDLAIQYPWFRRSLGSFYPSRLFDQFFGEGLFDYDLFPFFSSTISPYYRQSVFRNFLDSGISEVRSEKDRFMINLNVKHFSPEELSVKIVDDYVEIHGKHAERQEDQGRVSREFHRTYHLPSNLNESAIACSLSNEGLLTLCCPKTRPGDDSNWQDRPIPVSREEKQGTQPEIRADP
notes: αA-crystallin polypeptide of spiny dogfish lens α-crystallin; native subunit, not separated from αB-crystallin; tryptophan at positions 9 and 154; Native polypeptide from lens; also called αA chain; αA-crystallin subunit
Turning to B1, the “stoichiometry N” value in the assay with dogfish αB-crystallin was ~0.2 αA:αB.

B2: bovine αA-crystallin (natural protein, bovine (endogenous in lens), UniProt P02470 1-173, looked up)
chain: MDIAIQHPWFKRTLGPFYPSRLFDQFFGEGLFEYDLLPFLSSTISPYYRQSLFRTVLDSGISEVRSDRDKFVIFLDVKHFSPEDLTVKVQEDFVEIHGKHNERQDDHGYISREFHRRYRLPSNVDQSALSCSLSADGMLTFSGPKIPSGVDAGHSERAIPVSREEKPSSAPSS
notes: αA-crystallin polypeptide of bovine lens α-crystallin; native subunit, not separated from αB-crystallin; Native polypeptide from lens; also called bovine αA chain; bovine αA-crystallin subunit
In the case of B2, the binding result in the assay with bovine αB-crystallin is listed as “binds”.
